Experimental data as given in PMC11143224, “Flavivirus Zika NS4A protein forms large oligomers in liposomes and in mild detergent” (Scientific Reports, 2024).

Tests used:
[1] = molecular target: the molecule itself; experiment: cross-linking; purified NS4A (12 uM) in POPC/POPS (4:1) liposomes, lipid-to-protein ratios 40, 100 and 250; DSS 0.03-1.0 mM, or DSG, BS3, DSS, EGS, DSP at 0.25 mM, 15 min; SDS-PAGE and anti-His-tag Western blot
[2] = molecular target: the molecule itself; experiment: AUC; sedimentation equilibrium, multi-speed (15,000-33,000 rpm), 1 mM C14-betaine, 50 mM Tris-HCl pH 7.3, 100 mM NaCl, 2 mM TCEP, 33.4% D2O, absorbance at 280 nm; fitted in SEDPHAT; constant is of dimers to hexamer
[3] = molecular target: the molecule itself; experiment: AUC; sedimentation velocity, most diluted samples (detergent-to-protein ratio 640 and 320); 1 mM C14-betaine, 50 mM Tris-HCl pH 7.3, 100 mM NaCl, 2 mM TCEP, 33.4% D2O, 50,000 rpm, 25 °C, absorbance at 230 nm

B1: full-length Zika NS4A protein (strain MR-766) (natural protein)
chain: GAALGVMEALGTLPGHMTERFQEAIDNLAVLMRAETGSRPYKAAAAQLPETLETIMLLGLLGTVSLGIFFVLMRNKGIGKMGFGMVTLGASAWLMWLSEIEPARIACVLIVVFLLLVVLIPEPEKQR
notes: NS4A of Zika virus strain MR-766, the cut product of the polyprotein (mature NS4A without 2K), 127 residues (1-127); also called ZIKV NS4A; NS4A-FL; not shown: His-tag, N-terminal, kept
[1]
  stoichiometry N: ≥ 6
[2]
  stoichiometry N: 6
[3]
  stoichiometry N: 2
